Results reported in US20060281118A1 (UNIVERSITY OF MEDICINE AND DENTISTRY OF NEW JERSEY, published 2006).
Blank lines part the entries; values can stand above or below the molecule they belong to.

What was measured:
[1] = target: Pre1-FLAG (yeast) (UniProt P22141); test: co-immunoprecipitation on FLAG-agarose; amount left on the beads after 18 hours at 4° C.
[2] = target: T1, Cim3 (yeast, UniProt Q01939 2-405); test: GST pull-down from yeast extracts, Cim3 and Cim5 immunoblot (FIG. 13A, lane 5)
T1 construct: Endogenous protein in yeast extracts, detected by immunoblot as part of the proteasome complex; also called Sug1
T1 sequence (looked up): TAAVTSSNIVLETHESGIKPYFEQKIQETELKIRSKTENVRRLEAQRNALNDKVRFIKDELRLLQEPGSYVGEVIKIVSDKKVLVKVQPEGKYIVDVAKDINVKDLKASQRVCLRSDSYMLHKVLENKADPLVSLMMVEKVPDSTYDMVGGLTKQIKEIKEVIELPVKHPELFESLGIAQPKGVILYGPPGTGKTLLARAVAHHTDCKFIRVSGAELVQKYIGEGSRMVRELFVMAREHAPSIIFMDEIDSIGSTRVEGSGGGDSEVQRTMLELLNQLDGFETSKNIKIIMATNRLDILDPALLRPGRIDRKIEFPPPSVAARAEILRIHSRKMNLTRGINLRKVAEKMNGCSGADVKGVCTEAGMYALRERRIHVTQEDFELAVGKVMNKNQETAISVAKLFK
Experimental: (§1) GST linked proteins were expressed in yeast and purified on glutathione-SEPHAROSE. Proteins retained on the beads were resolved in SDS-polyacrylamide gels, transferred to nitrocellulose, and incubated with antisera specific to proteasome subunits Cim3 and Cim5. The blot was developed by enhanced chemiluminescence ([…]). […] Yeast strains expressing the GST linked proteins as well as Pre1-FLAG, FIG. 13B. The blot was developed with anti-FLAG antiserum (KODAK). The position of molecular weight markers are indicated.
(§2) Extracts were incubated with glutathione-SEPHAROSE, and bound proteins separated in a SDS-polyacrylamide gel, transferred to nitrocellulose and analyzed by immunological methods. […] The interacting proteins were analyzed via western blot analysis with Cim5 antibodies which cross-react with Mss1, a human counterpart of yeast Cim5 (Ghislain, et al. (1993) Nature 366:358-361).

[3] = target: T2, Cim5 (yeast, UniProt P33299 1-467); test: as above
T2 construct: Endogenous protein in yeast extracts, detected by immunoblot as part of the proteasome complex
T2 sequence (looked up): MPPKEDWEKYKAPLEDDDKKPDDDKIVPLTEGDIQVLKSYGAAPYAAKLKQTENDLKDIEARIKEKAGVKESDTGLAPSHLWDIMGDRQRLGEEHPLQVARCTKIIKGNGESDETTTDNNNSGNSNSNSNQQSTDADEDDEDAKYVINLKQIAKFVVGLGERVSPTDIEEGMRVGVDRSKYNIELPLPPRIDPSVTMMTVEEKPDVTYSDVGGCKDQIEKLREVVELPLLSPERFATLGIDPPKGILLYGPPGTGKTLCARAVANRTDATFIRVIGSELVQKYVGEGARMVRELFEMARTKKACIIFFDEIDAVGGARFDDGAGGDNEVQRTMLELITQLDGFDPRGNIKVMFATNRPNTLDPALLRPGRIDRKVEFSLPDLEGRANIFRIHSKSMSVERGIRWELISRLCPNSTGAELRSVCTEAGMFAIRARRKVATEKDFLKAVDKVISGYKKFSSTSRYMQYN
Experimental: as §1, §2

Pre1-FLAG (yeast), sequence (P22141 whole entry): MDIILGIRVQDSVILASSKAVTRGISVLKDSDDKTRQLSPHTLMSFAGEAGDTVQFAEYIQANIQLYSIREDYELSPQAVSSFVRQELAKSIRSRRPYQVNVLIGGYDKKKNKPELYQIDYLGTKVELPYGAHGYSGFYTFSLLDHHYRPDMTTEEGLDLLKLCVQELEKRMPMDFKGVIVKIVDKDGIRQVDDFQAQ

- percent of cellular Rad23 precipitated with Pre1-FLAG [1]: 5%
Molecule: native Rad23 (from UniProt P32628 1-398)

- binding result [2]: no binding
- binding result [3]: no binding
B1: GST-UbL^HRA (other)
chain: MAVTITLKTLQQQTFKIRMEPDETVKVLKEKIEAEKGRDAFPVAGQKLIYAGKILSDDVPIRDYRIDEKNFVVVMVTKTKA
notes: The UbL is linked to the C-terminus of GST; also called ubiquitin-like domain of HHR23A linked to GST; not shown: glutathione S-transferase (GST)
